T1: complex of plate-bound murine IL-1R1-Fc and murine IL-1β (murine, UniProt P13504 20-338; P10749 118-269, limits assumed)
T1 construct: Formed in the ELISA well from coated IL-1R1-Fc and titrated IL-1β; It is the partner that captures his6-IL-1RAcP; also called IL-1/IL-1R1 complex; not shown: Fc part of the bought fusion protein
T1 sequence (looked up) 1: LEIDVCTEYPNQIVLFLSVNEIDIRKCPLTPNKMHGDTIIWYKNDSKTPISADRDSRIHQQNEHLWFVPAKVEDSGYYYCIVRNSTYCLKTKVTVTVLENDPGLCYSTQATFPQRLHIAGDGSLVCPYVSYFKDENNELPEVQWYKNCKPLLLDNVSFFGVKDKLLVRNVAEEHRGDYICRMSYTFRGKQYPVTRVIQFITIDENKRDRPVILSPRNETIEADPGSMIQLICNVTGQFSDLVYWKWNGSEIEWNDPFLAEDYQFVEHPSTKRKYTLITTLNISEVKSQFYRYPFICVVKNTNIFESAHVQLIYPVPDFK
T1 sequence (looked up) 2: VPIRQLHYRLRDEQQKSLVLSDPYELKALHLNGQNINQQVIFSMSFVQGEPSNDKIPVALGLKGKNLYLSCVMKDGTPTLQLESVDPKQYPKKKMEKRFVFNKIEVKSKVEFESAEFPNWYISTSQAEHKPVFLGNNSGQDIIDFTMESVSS

T2: murine IL-1R1-Fc fusion protein (R&D Systems) (murine, UniProt P13504 20-338, limits assumed)
T2 construct: Bought reagent (R&D Systems), coated on the plate at 3 ug/ml; not shown: Fc part of the bought fusion protein
T2 sequence (looked up): T1 sequence (looked up) 1

B1: murine IL-33 (ligand, UniProt Q8BVZ5 109-266, looked up)
chain: SIQGTSLLTQSPASLSTYNDQSVSFVLENGCYVINVDDSGKDQEQDQVLLRYYESPCPASQSGDGVDGKKLMVNMSPIKDTDIWLHANDKDYSVELQRGDVSPPEQAFFVLHKKSSDFVSFECKNLPGTYIGVKDNQLALVEEKDESCNNIMFKLSKI
notes: also called mouse IL-33
B2: recombinant his6-tagged murine IL-1RAcP (receptor, UniProt Q61730 21-367, looked up)
chain: SERCDDWGLDTMRQIQVFEDEPARIKCPLFEHFLKYNYSTAHSSGLTLIWYWTRQDRDLEEPINFRLPENRISKEKDVLWFRPTLLNDTGNYTCMLRNTTYCSKVAFPLEVVQKDSCFNSAMRFPVHKMYIEHGIHKITCPNVDGYFPSSVKPSVTWYKGCTEIVDFHNVLPEGMNLSFFIPLVSNNGNYTCVVTYPENGRLFHLTRTVTVKVVGSPKDALPPQIYSPNDRVVYEKEPGEELVIPCKVYFSFIMDSHNEVWWTIDGKKPDDVTVDITINESVSYSSTEDETRTQILSIKKVTPEDLRRNYVCHARNTKGEAEQAAKVKQKVIPPRYTVELACGFGAT
notes: Described only as soluble, recombinant and his6-tagged; also called soluble his6-tagged murine IL-1RAcP; his6-tagged IL-1RAcP; not shown: his6 tag
B3: murine IL-1β (ligand, UniProt P10749 118-269, looked up)
chain: T1 sequence (looked up) 2
notes: also called mouse IL-1β

Columns and labels:
[1] = target: B2; test: not described (data not shown)
[2] = target: T1, complex of plate-bound murine IL-1R1-Fc …; test: receptor-ligand complex ELISA: IL-1R1-Fc coated, his6-IL-1RAcP 3 ug/ml in solution, IL-1β titrated, anti-his6-peroxidase detection
Experimental: (§1) Murine IL-1β or IL-33 was titrated into plates containing soluble his6-tagged murine IL-1RAcP and plate-bound ST2-Fc (FIG. 8A) or IL-1R1-Fc (FIG. 8B). Peroxidase-conjugated anti-his6 was used as a detection antibody. Data is representative of 2 experiments. Data represent the mean+/-SEM of duplicate wells.
(§2) Receptor-ligand complex ELISA: 3 µg/mlmurine ST2-Fc or IL-1R1-Fc fusion proteins (R&D Systems) in PBS were coated overnight onto MaxiSorp plates (Nunc). After washing, plates were incubated with 3 µg/ml recombinant his6-tagged murine IL-1RAcP and increasing concentrations of murine IL-33 or IL-1β in PBS/1% bovine serum albumin/ 0.05% Tween-20® polyoxyethylene sorbitan monolaurate for 1.5 hours. Plates were washed and incubated with anti-his6-peroxidase (Roche Diagnostics) for 1 hour, washed again, developed with TMB Peroxidase substrate (KPL), stopped with […], and read on a plate reader at 450-570 nm.

[3] = target: T2, murine IL-1R1-Fc fusion protein (R&D …); test: receptor-ligand complex ELISA: IL-1β titrated onto coated IL-1R1-Fc with his6-IL-1RAcP present; the readout is captured his6-IL-1RAcP (ternary complex)
Experimental: as §1, §2

Binder: B1
binding result [1]: no binding

Binder: B2
binding result [2]: binds

Binder: B3
binding result [3]: binds
